Test results as given in article PMC8844822, “SARM1 is a multi-functional NAD(P)ase with prominent base exchange activity, all regulated bymultiple physiologically relevant NAD metabolites” (iScience, 2022).

Experiments:
[1] = substrate: NC(=O)c1ccc[n+]([C@@H]2O[C@H](COP(=O)([O-])OP(=O)(O)OC[C@H]3O[C@@H](n4cnc5c(N)ncnc54)[C@H](O)[C@@H]3O)[C@@H](O)[C@H]2O)c1; assay: purified protein, by the assay type; details: other: Aplysia cyclase, substrate as labelled, pH 7.5
Procedure: hSARM1 species were routinely assayed by the NAD/NADH-Glo^TM Assay (Promega) while both Aplysia cyclase and CD38 were assayed by fluorometry using ϵNAD ([Orsomando et al., 2000]). […] Other reagents used in addition to, or in place of those above are detailed in text or in figure legends, for example metal ions, free bases, dinucleotide analogues, mononucleotides, and ribosides. Assays were all carried out at 25°C except for temperature studies. Reactions were stopped by HClO4/K2CO3 and analysed by C18-HPLC as reported ([Mori et al., 2014]). Only the acid labile NADH and NADPH were treated with 1 N NaOH and neutralized using 1:1 vol of 1.73 M KH2CO3 while the highly hydrophobic metabolites vacor, VAD, VMN and VR, were analysed by a modified C18-HPLC method ([Buonvicino et al., 2018]). Reaction products were quantified from peak areas (see Figure 2A) based on coelution with standards (except for cyclic products from NAD analogues that were not available and were attributed based on UV-spectra and retention times as predicted). Rates were calculated as follows. Hydrolysis and cyclization were measured from product generation from the respective individual dinucleotide substrate used, e.g., free and cyclic ADP-ribosyl moieties from NAD (Figure 1B). A basal value for hydrolysis/cyclization was taken as sum of these latter two products. […]

[2] = substrate: NC(=O)c1ccc[n+]([C@@H]2O[C@H](COP(=O)([O-])OP(=O)(O)OC[C@H]3O[C@@H](n4cnc5c(N)ncnc54)[C@H](O)[C@@H]3O)[C@@H](O)[C@H]2O)c1; assay: purified protein, by the assay type; type: biochemical; details: other: hSARM1 SAM-TIR, pH 7.5
Procedure: (§1) hSARM1 species were routinely assayed by the NAD/NADH-Glo^TM Assay (Promega) while both Aplysia cyclase and CD38 were assayed by fluorometry using ϵNAD ([Orsomando et al., 2000]). […] Other reagents used in addition to, or in place of those above are detailed in text or in figure legends, for example metal ions, free bases, dinucleotide analogues, mononucleotides, and ribosides. Assays were all carried out at 25°C except for temperature studies. Reactions were stopped by HClO4/K2CO3 and analysed by C18-HPLC as reported ([Mori et al., 2014]). Only the acid labile NADH and NADPH were treated with 1 N NaOH and neutralized using 1:1 vol of 1.73 M KH2CO3 while the highly hydrophobic metabolites vacor, VAD, VMN and VR, were analysed by a modified C18-HPLC method ([Buonvicino et al., 2018]). Reaction products were quantified from peak areas (see Figure 2A) based on coelution with standards (except for cyclic products from NAD analogues that were not available and were attributed based on UV-spectra and retention times as predicted). Rates were calculated as follows. Hydrolysis and cyclization were measured from product generation from the respective individual dinucleotide substrate used, e.g., free and cyclic ADP-ribosyl moieties from NAD (Figure 1B). A basal value for hydrolysis/cyclization was taken as sum of these latter two products. In addition to that value, base exchange or transglycosidation was calculated from the expected dinucleotide analog formed in the presence of the corresponding free base, e.g., AcPyrAD from AcPyr and NAD.
(§2) The kinetic parameters were calculated from initial rates obtained from replicates via best-fitting analysis using the following Equation 1 for CD38 and Aplysia cyclase, or Equation 2 for hSARM1 SAM-TIR, or Equation 3 for hSARM1 full length(Equation 1) V =Vmax[S]/Km+[S]

[3] = substrate: NC(=O)c1ccc[n+]([C@@H]2O[C@H](COP(=O)([O-])OP(=O)(O)OC[C@H]3O[C@@H](n4cnc5c(N)ncnc54)[C@H](O)[C@@H]3O)[C@@H](O)[C@H]2O)c1; assay: NAD(P)ase activity by HPLC (kinetics, substrates, metal ions); type: biochemical, human; details: other: hSARM1 full length
Procedure: as §1, §2

[4] = re-elaborated from Table 1, pH 7.5

B1: Aplysia californica ADP ribosyl cyclase (Aplysia californica) (protein)
chain: IVPTRELENVFLGRCKDYEITRYLDILPRVRSDCSALWKDFFKAFSFKNPCDLDLGSYKDFFTSAQQQLPKNKVMFWSGVYDEAHDYANTGRKYITLEDTLPGYMLNSLVWCGQRANPGFNEKVCPDFKTCPVQARESFWGMASSSYAHSAEGEVTYMVDGSNPKVPAYRPDSFFGKYELPNLTNKVTRVKVIVLHRLGEKIIEKCGAGSLLDLEKLVKAKHFAFDCVENPRAVLFLLCSDNPNARECRLAKRFYRIA
[1]
  Km: 212 ± 13.7 µM
  Vmax: 51.4 ± 1.24 µmol/min/mg

B2: hSARM1 SAM-TIR (Homo sapiens) (protein)
chain: VPSWKEAEVQTWLQQIGFSKYCESFREQQVDGDLLLRLTEEELQTDLGMKSGITRKRFFRELTELKTFANYSTCDRSNLADWLGSLDPRFRQYTYGLVSCGLDRSLLHRVSEQQLLEDCGIHLGVHRARILTAAREMLHSPLPCTGGKPSGDTPDVFISYRRNSGSQLASLLKVHLQLHGFSVFIDVEKLEAGKFEDKLIQSVMGARNFVLVLSPGALDKCMQDHDCKDWVHKEIVTALSCGKNIVPIIDGFEWPEPQVLPEDMQAVLTFNGIKWSHEYQEATIEKIIRFLQGRSSRDSSAGSDTSLEGAAPMGPT
notes: made in house
[2]
  Km: 69.5 ± 2.31 µM
  Vmax: 0.723 µmol/min/mg
  kcat: 0.448 ± 0.009 s⁻¹
  kcat/Km: 6500 ± 350 M⁻¹ s⁻¹

B3: human SARM1 full length (Homo sapiens) (protein)
chain: LAVPGPDGGGGTGPWWAAGGRGPREVSPGAGTEVQDALERALPELQQALSALKQAGGARAVGAGLAEVFQLVEEAWLLPAVGREVAQGLCDAIRLDGGLDLLLRLLQAPELETRVQAARLLEQILVAENRDRVARIGLGVILNLAKEREPVELARSVAGILEHMFKHSEETCQRLVAAGGLDAVLYWCRRTDPALLRHCALALGNCALHGGQAVQRRMVEKRAAEWLFPLAFSKEDELLRLHACLAVAVLATNKEVEREVERSGTLALVEPLVASLDPGRFARCLVDASDTSQGRGPDDLQRLVPLLDSNRLEAQCIGAFYLCAEAAIKSLQGKTKVFSDIGAIQSLKRLVSYSTNGTKSALAKRALRLLGEEVPRPILPSVPSWKEAEVQTWLQQIGFSKYCESFREQQVDGDLLLRLTEEELQTDLGMKSGITRKRFFRELTELKTFANYSTCDRSNLADWLGSLDPRFRQYTYGLVSCGLDRSLLHRVSEQQLLEDCGIHLGVHRARILTAAREMLHSPLPCTGGKPSGDTPDVFISYRRNSGSQLASLLKVHLQLHGFSVFIDVEKLEAGKFEDKLIQSVMGARNFVLVLSPGALDKCMQDHDCKDWVHKEIVTALSCGKNIVPIIDGFEWPEPQVLPEDMQAVLTFNGIKWSHEYQEATIEKIIRFLQGRSSRDSSAGSDTSLEGAAPMGPT
notes: Human recombinant SARM1 full length proteins (wild-type and E642A mutant); made in house
[3]; no NMN, pH 7.5
  Km: 30.3 ± 5.18 µM
  Vmax: 0.0224 µmol/min/mg
[3]; [4]
  kcat: 0.03 ± 0.007 s⁻¹
  kcat/Km: 1000 ± 350 M⁻¹ s⁻¹
